Results reported in publication PMC4670726 (2015).

B1: JIP1, full length, YFP fragment F1 fusion (BiFC) [not stated] / F2-JNK1 (K55R) (BiFC) [human] (parent complex)
chain 1: MAERESGGLGGGAASPPAASPFLGLHIASPPNFRLTHDISLEEFEDEDLSEITDECGISLQCKDTLSLRPPRAGLLSAGGGGAGSRLQAEMLQMDLIDATGDTPGAEDDEEDDDEERAARRPGAGPPKAESGQEPASRGQGQSQGQSQGPGSGDTYRPKRPTTLNLFPQVPRSQDTLNNNSLGKKHSWQDRVSRSSSPLKTGEQTPPHEHICLSDELPPQSGPAPTTDRGTSTDSPCRRSTATQMAPPGGPPAAPPGGRGHSHRDRIHYQADVRLEATEEIYLTPVQRPPDAAEPTSAFLPPTESRMSVSSDPDPAAYPSTAGRPHPSISEEEEGFDCLSSPERAEPPGGGWRGSLGEPPPPPRASLSSDTSALSYDSVKYTLVVDEHAQLELVSLRPCFGDYSDESDSATVYDNCASVSSPYESAIGEEYEEAPRPQPPACLSEDSTPDEPDVHFSKKFLNVFMSGRSRSSSAESFGLFSCIINGEEQEQTHRAIFRFVPRHEDELELEVDDPLLVELQAEDYWYEAYNMRTGARGVFPAYYAIEVTKEPEHMAALAKNSDWVDQFRVKFLGSVQVPYHKGNDVLCAAMQKIATTRRLTVHFNPPSSCVLEISVRGVKIGVKADDSQEAKGNKCSHFFQLKNISFCGYHPKNNKYFGFITKHPADHRFACHVFVSEDSTKALAESVGRAFQQFYKQFVEYTCPTEDIYLE
chain 2: MSRSKRDNNFYSVEIGDSTFTVLKRYQNLKPIGSGAQGIVCAAYDAILERNVAIRKLSRPFQNQTHAKRAYRELVLMKCVNHKNIIGLLNVFTPQKSLEEFQDVYIVMELMDANLCQVIQMELDHERMSYLLYQMLCGIKHLHSAGIIHRDLKPSNIVVKSDCTLKILDFGLARTAGTSFMMTPYVVTRYYRAPEVILGMGYKENVDLWSVGCIMGEMVCHKILFPGRDYIDQWNKVIEQLGTPCPEFMKKLQPTVRTYVENRPKYAGYSFEKLFPDVLFPADSEHNKLKASQARDLLSKMLVIDASKRISVDEALQHPYINVWYDPSEAEAPPPKIPDKQLDEREHTIEEWKELIYKEVMDLEERTKNGVIRGQPSPLGAAVINGSQHPSSSSSVNDVSSMSTDPTLASDTDSSLEAAAGPLGCCR

Variants of: B1
Assay: BiFC (bimolecular fragment complementation), fluorescence measurement on co-transfected HEK293 cell populations; live HEK293 cells, transient co-transfection, N = 6; read off a plot

response	Variant
~1700 arbitrary units	chain 1 R160A, chain 1 P161A, chain 1 L164A, chain 1 L166A
